Assay results as given in PMC4506739.

Biological target: importin α ΔIBB (NLS-recognition domain of importin α)
Experiment: ITC

Substance | fold higher affinity than TPX2 NLS [fold] | stoichiometry N
GM130 N74 S25D-GST (Cdk1 phospho-mimicking mutant) (from UniProt Q62839 1-74) (domain or fragment) | 9 | 1
GST-TPX2 NLS wildtype (mouse TPX2 residues 302-322) (from UniProt A2APB8 302-322) (peptide) |  | 1
